“And” between values parts separate entries of the source, which are not always exact repeats. Identical values can stand only once.

The target of the assay is nucleocapsid variant NC-1 (circularly permuted Aquifex aeolicus lumazine synthase with the arginine-rich peptide λN+ appended) (Aquifex aeolicus). The assay is described as follows: cryo-EM structure.

One may read the stoichiometry N as the number of molecules, sites or subunits per partner or assembly. Consider “nucleocapsid variant NC-1 (circularly permuted Aquifex aeolicus lumazine synthase with the arginine-rich peptide λN+ appended)”, for which the stoichiometry N is 180 and 120.

These data come from publication doi:10.1101/2020.12.23.423990.
